From US20110280873A1
Like-named read-outs stand apart in the source and are kept apart here.

Experiments:
Assay in all cases: cell-based or functional assay
[1] = molecular target: CCR2 (the MCP1 receptor) on THP-1 human monocytic cells (human) (UniProt P41597)
[2] = molecular target: CCR2 (the MCP1 receptor) on THP-1 human monocytic cells (human) (UniProt P41597); remark: listed apart in the source
[3] = molecular target: CCR2 (the MCP1 receptor) on THP-1 human monocytic cells (human) (UniProt P41597); remark: listed apart in the source
[4] = molecular target: CCR2 (the MCP1 receptor) on THP-1 human monocytic cells (human) (UniProt P41597); remark: listed apart in the source

Chain of UniProt P41597 (P41597 whole entry): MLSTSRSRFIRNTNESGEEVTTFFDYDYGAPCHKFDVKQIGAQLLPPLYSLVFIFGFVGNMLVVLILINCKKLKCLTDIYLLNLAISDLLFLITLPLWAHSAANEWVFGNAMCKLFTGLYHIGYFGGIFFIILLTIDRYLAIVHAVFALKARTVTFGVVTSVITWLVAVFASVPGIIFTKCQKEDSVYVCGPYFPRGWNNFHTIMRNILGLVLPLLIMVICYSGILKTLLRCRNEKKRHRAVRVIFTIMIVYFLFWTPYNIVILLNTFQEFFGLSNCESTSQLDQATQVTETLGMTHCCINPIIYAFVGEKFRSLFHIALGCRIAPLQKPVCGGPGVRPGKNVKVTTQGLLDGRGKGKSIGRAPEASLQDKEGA

For “recombinant human MCP-1 (rhMCP-1) (R & D Systems) (from UniProt P13500 24-99) (ligand)”, the relative % of THP-1 cell migration, agonist assay, 0.03 nM [1] was 28.6%, the relative % of THP-1 cell migration, agonist assay, 0.1 nM [1] was 52.2% and the relative % of THP-1 cell migration, agonist assay, 0.3 nM [1] was 76%. The relative % of THP-1 cell migration, agonist assay, 3 nM [1] was 78.1%, the relative % of THP-1 cell migration, agonist assay, 10 nM [1] was 47.5% and the relative % of THP-1 cell migration, agonist assay, 30 nM [1] was 25.3%. The relative % of THP-1 cell migration, agonist assay, 0.01 nM [2] was 29.2%, the relative % of THP-1 cell migration, agonist assay, 0.03 nM [2] was 28.7% and the relative % of THP-1 cell migration, agonist assay, 0.1 nM [2] was 59.4%. It also gave a relative % of THP-1 cell migration, agonist assay, 0.3 nM [2] of 87.3%, a relative % of THP-1 cell migration, agonist assay, 3 nM [2] of 78.4% and a relative % of THP-1 cell migration, agonist assay, 10 nM [2] of 48.4%. The relative % of THP-1 cell migration toward rhMCP-1 0.01 nM, medium only [3] was 16.2%, the relative % of THP-1 cell migration toward rhMCP-1 0.03 nM, medium only [3] was 24.2% and the relative % of THP-1 cell migration toward rhMCP-1 0.1 nM, medium only [3] was 34.8%. It also gave a relative % of THP-1 cell migration toward rhMCP-1 0.3 nM, medium only [3] of 60.7%, a relative % of THP-1 cell migration toward rhMCP-1 3 nM, medium only [3] of 82.1% and a relative % of THP-1 cell migration toward rhMCP-1 10 nM, medium only [3] of 59.8%. For the same substance, the EC50, agonist THP-1 cell migration [4] was 0.1 nM, the relative % of THP-1 cell migration toward rhMCP-1 0.01 nM, medium only [4] was 6.44% and the relative % of THP-1 cell migration toward rhMCP-1 0.03 nM, medium only [4] was 15%. It also gave a relative % of THP-1 cell migration toward rhMCP-1 0.1 nM, medium only [4] of 32%, a relative % of THP-1 cell migration toward rhMCP-1 0.3 nM, medium only [4] of 67.5% and a relative % of THP-1 cell migration toward rhMCP-1 1 nM, medium only [4] of 100%. It also gave a relative % of THP-1 cell migration toward rhMCP-1 3 nM, medium only [4] of 97%, a relative % of THP-1 cell migration toward rhMCP-1 10 nM, medium only [4] of 75.5% and a relative % of THP-1 cell migration, agonist assay, 0.03 nM [4] of 26.5%. For the same substance, the relative % of THP-1 cell migration, agonist assay, 0.1 nM [4] was 46.4%, the relative % of THP-1 cell migration, agonist assay, 0.3 nM [4] was 80.2% and the relative % of THP-1 cell migration, agonist assay, 1 nM [4] was 100%. For the same substance, the relative % of THP-1 cell migration, agonist assay, 3 nM [4] was 70.3%, the relative % of THP-1 cell migration, agonist assay, 10 nM [4] was 32.8% and the relative % of THP-1 cell migration, agonist assay, 30 nM [4] was 26.4%.

Work on “LPD1421 (MCP1-Ig fusion: mature human MCP1, linker GGEPKSS of SEQ ID NO: 12, human IgG1 variant hinge-CH3 with D265A) (Fc fusion)” yielded a relative % of THP-1 cell migration, agonist assay, 0.01 nM [2] of 27.9%, a relative % of THP-1 cell migration, agonist assay, 0.03 nM [2] of 63.8% and a relative % of THP-1 cell migration, agonist assay, 0.1 nM [2] of 104%. It also gave a relative % of THP-1 cell migration, agonist assay, 0.3 nM [2] of 86.2%, a relative % of THP-1 cell migration, agonist assay, 1 nM [2] of 59.5% and a relative % of THP-1 cell migration, agonist assay, 3 nM [2] of 33.1%. The relative % of THP-1 cell migration, agonist assay, 10 nM [2] was 26.4%, the relative % of THP-1 cell migration, antagonist assay, rhMCP-1 0 nM, LPD1421 0.01 nM [3] was 11.8% and the relative % of THP-1 cell migration, antagonist assay, rhMCP-1 0 nM, LPD1421 0.1 nM [3] was 9.55%. For the same substance, the relative % of THP-1 cell migration, antagonist assay, rhMCP-1 0 nM, LPD1421 1 nM [3] was 12.6%, the relative % of THP-1 cell migration, antagonist assay, rhMCP-1 0.01 nM, LPD1421 0.01 nM [3] was 10.6% and the relative % of THP-1 cell migration, antagonist assay, rhMCP-1 0.01 nM, LPD1421 0.1 nM [3] was 9.42%. The relative % of THP-1 cell migration, antagonist assay, rhMCP-1 0.01 nM, LPD1421 1 nM [3] was 8.35%, the relative % of THP-1 cell migration, antagonist assay, rhMCP-1 0.03 nM, LPD1421 0.01 nM [3] was 12.7% and the relative % of THP-1 cell migration, antagonist assay, rhMCP-1 0.03 nM, LPD1421 0.1 nM [3] was 10.3%. For the same substance, the relative % of THP-1 cell migration, antagonist assay, rhMCP-1 0.03 nM, LPD1421 1 nM [3] was 10.7%, the relative % of THP-1 cell migration, antagonist assay, rhMCP-1 0.1 nM, LPD1421 0.01 nM [3] was 24.3% and the relative % of THP-1 cell migration, antagonist assay, rhMCP-1 0.1 nM, LPD1421 0.1 nM [3] was 12.1%. The relative % of THP-1 cell migration, antagonist assay, rhMCP-1 0.1 nM, LPD1421 1 nM [3] was 7.25%, the relative % of THP-1 cell migration, antagonist assay, rhMCP-1 0.3 nM, LPD1421 0.01 nM [3] was 41.7% and the relative % of THP-1 cell migration, antagonist assay, rhMCP-1 0.3 nM, LPD1421 0.1 nM [3] was 15.9%. The relative % of THP-1 cell migration, antagonist assay, rhMCP-1 0.3 nM, LPD1421 1 nM [3] was 13.5%, the relative % of THP-1 cell migration, antagonist assay, rhMCP-1 1 nM, LPD1421 0.01 nM [3] was 61.2% and the relative % of THP-1 cell migration, antagonist assay, rhMCP-1 1 nM, LPD1421 0.1 nM [3] was 33.7%. It also gave a relative % of THP-1 cell migration, antagonist assay, rhMCP-1 1 nM, LPD1421 1 nM [3] of 9.44%, a relative % of THP-1 cell migration, antagonist assay, rhMCP-1 3 nM, LPD1421 0.01 nM [3] of 44% and a relative % of THP-1 cell migration, antagonist assay, rhMCP-1 3 nM, LPD1421 0.1 nM [3] of 39.2%. It also gave a relative % of THP-1 cell migration, antagonist assay, rhMCP-1 3 nM, LPD1421 1 nM [3] of 9.57%, a relative % of THP-1 cell migration, antagonist assay, rhMCP-1 10 nM, LPD1421 0.01 nM [3] of 39.2% and a relative % of THP-1 cell migration, antagonist assay, rhMCP-1 10 nM, LPD1421 0.1 nM [3] of 37.9%. For the same substance, the relative % of THP-1 cell migration, antagonist assay, rhMCP-1 10 nM, LPD1421 1 nM [3] was 16.1%, the EC50, agonist THP-1 cell migration [4] was 0.03 nM and the IC50, antagonist assay of THP-1 cell migration toward rhMCP-1 [4] was 0.01 to 0.1 nM. It also gave a potency in agonist cell migration relative to rhMCP-1 [4] of 3 fold.

“GSD (human MCP-1, glycine-serine dipeptide, wild-type human IgG1 Fc) (from UniProt P13500 24-99; P01857 99-330) (Fc fusion)” gave a relative % of THP-1 cell migration, agonist assay, 0.03 nM [1] of 22.8%, a relative % of THP-1 cell migration, agonist assay, 0.1 nM [1] of 34.5% and a relative % of THP-1 cell migration, agonist assay, 0.3 nM [1] of 41.9%. For the same substance, the relative % of THP-1 cell migration, agonist assay, 1 nM [1] was 58.9%, the relative % of THP-1 cell migration, agonist assay, 3 nM [1] was 53% and the relative % of THP-1 cell migration, agonist assay, 10 nM [1] was 34.3%. The relative % of THP-1 cell migration, agonist assay, 30 nM [1] was 23.1% and the EC50, agonist THP-1 cell migration [4] was 0.03 to 0.3 nM.

For “NGSD (human MCP-1 joined at its carboxy-terminus directly to wild-type human IgG1 Fc) (from UniProt P13500 24-99; P01857 99-330) (Fc fusion)”, the EC50, agonist THP-1 cell migration [4] was 0.03 to 0.3 nM, the relative % of THP-1 cell migration, agonist assay, 0.03 nM [4] was 17.7% and the relative % of THP-1 cell migration, agonist assay, 0.1 nM [4] was 34.3%. It also gave a relative % of THP-1 cell migration, agonist assay, 0.3 nM [4] of 35.5%, a relative % of THP-1 cell migration, agonist assay, 1 nM [4] of 36.5% and a relative % of THP-1 cell migration, agonist assay, 3 nM [4] of 26.7%. For the same substance, the relative % of THP-1 cell migration, agonist assay, 10 nM [4] was 17.5% and the relative % of THP-1 cell migration, agonist assay, 30 nM [4] was 20.1%.
